The target in data set [1] is PagRBc, PagR homologue (ArsR/SmtB family transcription factor) of emetic B. cereus F4810/72, encoded on pCER270 (Bacillus cereus F4810/72 (emetic reference strain)). Nature of the data set: two-hybrid.
The test system of data set [2] is PagRBc (Bacillus cereus F4810/72 (AH187), plasmid pCER270). Nature of the data set: EMSA. For orientation: Mobility shift assays separate free from complexed probe on a gel.
Data set [3] deals with PagRBa (PagR) (Bacillus anthracis Sterne, plasmid pXO1). In words: EMSA.
Data set [4] relates to PagR1Bc (Bacillus cereus F4810/72 (AH187), plasmid pCER270). In words: EMSA.

In article PMC9570423 one finds fold of self-interaction (β-galactosidase activity) against the self-interaction of PagR1Bc and Kd data, which are given here for two substances.

Take “PagRBc, PagR homologue (ArsR/SmtB family transcription factor) of emetic B. cereus F4810/72, encoded on pCER270 (natural protein)”: in data set [1], the fold of self-interaction (β-galactosidase activity) against the self-interaction of PagR1Bc was 1.75 fold.

What is called Kd is the equilibrium constant for the complex coming apart. Read a low Kd as a tighter complex. cesP main promoter (cesPII), 523 bp: the Kd in data set [2] was determined as 25 nM; in data set [3], 25 nM; in data set [4] it was 150 nM.
